Here are results for three substances from US20120220489A1.

Test [1] has as its target Histone H3 recombinant protein, human, Upstate 14-494 (human) (UniProt P68431). Description: RPA, competition: +free H3 peptide 1000 nM.
The target in test [2] is pRb-BSA 1x peptide-protein conjugate (bovine). Description: RPA, competition: +free H3 peptide 1000 nM.
Test [3] has as its target ERK1 (p44), human, Cell Signaling Technology 7416 (human) (UniProt P27361). Description: RPA, competition: +free H3 peptide 1000 nM.
Test [4] concerns the target Histone H3-BSA 2.7x peptide-protein conjugate (bovine). Description: RPA, competition: +free H3 peptide 1000 nM.
Test [5] has as its target ERK1 (p42) active (phospho), human, Active Motif 31 152 (human) (UniProt P27361). Description: RPA, competition: +free H3 peptide 1000 nM.
Test [6] has as its target Histone H3 recombinant protein, calf, Roche 11 034 758 001 (calf) (UniProt P68432). Description: RPA, competition: +free H3 peptide 1000 nM.
In test [7] the target is pRb recombinant protein, human, Active Motif 31 128 (human) (UniProt P06400). Description: RPA, competition: +free H3 peptide 1000 nM.
Test [8] concerns the target ERK2 (p42), human, Biosource PHO 0104 (human) (UniProt P28482). Description: RPA, competition: +free H3 peptide 1000 nM.
Test [9] has as its target ERK1 (p44) inactive (GST tagged), human, Invitrogen PV 3312 (human) (UniProt P27361). Description: RPA, competition: +free H3 peptide 1000 nM.
Test [10] addresses Erk1-BSA 2.7x peptide-protein conjugate (human; bovine). Description: RPA, competition: +free H3 peptide 1000 nM.
For test [11], the target named is pErk1/2-BSA 2.7x peptide-protein conjugate (human; bovine). Description: RPA, competition: +free H3 peptide 1000 nM.
The target in test [12] is ERK1 (p44) active (GST tagged), human, Invitrogen PV 3311 (human) (UniProt P27361). Description: RPA, competition: +free H3 peptide 1000 nM.
Test [13] has as its target Histone H3 recombinant protein, human, Upstate 14-494 (human) (UniProt P68431). Description: RPA standard curve, assay 2, LOD back-calculated from one-site fit.
In test [14] the target is Histone H3-BSA 2.7x peptide-protein conjugate (bovine). The description is as above.
In test [15] the target is Histone H3 recombinant protein, human, Upstate 14-494 (human) (UniProt P68431). Description: RPA, competition: +free H3 peptide 100 nM.
Test [16] has as its target pRb-BSA 1x peptide-protein conjugate (bovine). Description: RPA, competition: +free H3 peptide 100 nM.
In test [17] the target is ERK1 (p44), human, Cell Signaling Technology 7416 (human) (UniProt P27361). Description: RPA, competition: +free H3 peptide 100 nM.
In test [18] the target is Histone H3-BSA 2.7x peptide-protein conjugate (bovine). Description: RPA, competition: +free H3 peptide 100 nM.
Test [19] addresses ERK1 (p42) active (phospho), human, Active Motif 31 152 (human) (UniProt P27361). Description: RPA, competition: +free H3 peptide 100 nM.
Test [20] deals with Histone H3 recombinant protein, calf, Roche 11 034 758 001 (calf) (UniProt P68432). Description: RPA, competition: +free H3 peptide 100 nM.
The target in test [21] is pRb recombinant protein, human, Active Motif 31 128 (human) (UniProt P06400). Description: RPA, competition: +free H3 peptide 100 nM.
For test [22], the target named is ERK2 (p42), human, Biosource PHO 0104 (human) (UniProt P28482). Description: RPA, competition: +free H3 peptide 100 nM.
The target in test [23] is ERK1 (p44) inactive (GST tagged), human, Invitrogen PV 3312 (human) (UniProt P27361). Description: RPA, competition: +free H3 peptide 100 nM.
In test [24] the target is Erk1-BSA 2.7x peptide-protein conjugate (human; bovine). Description: RPA, competition: +free H3 peptide 100 nM.
For test [25], the target named is pErk1/2-BSA 2.7x peptide-protein conjugate (human; bovine). Description: RPA, competition: +free H3 peptide 100 nM.
For test [26], the target named is ERK1 (p44) active (GST tagged), human, Invitrogen PV 3311 (human) (UniProt P27361). Description: RPA, competition: +free H3 peptide 100 nM.
Test [27] addresses ERK1 (p44) inactive (GST tagged), human, Invitrogen PV 3312 (human) (UniProt P27361). Description: RPA standard curve, assay 2, LOD back-calculated from one-site fit.
The target of test [28] is Erk1-BSA 2.7x peptide-protein conjugate (human; bovine). The description is as above.
Test [29] deals with pErk1/2-BSA 2.7x peptide-protein conjugate (human; bovine). Described as above.
In test [30] the target is Histone H3 recombinant protein, human, Upstate 14-494 (human) (UniProt P68431). Description: RPA, competition: +free pErk1/2 peptide 1000 nM.
Test [31] addresses ERK1 (p44), human, Cell Signaling Technology 7416 (human) (UniProt P27361). Description: RPA, competition: +free pErk1/2 peptide 1000 nM.
Test [32] concerns the target ERK1 (p42) active (phospho), human, Active Motif 31 152 (human) (UniProt P27361). Description: RPA, competition: +free pErk1/2 peptide 1000 nM.
In test [33] the target is ERK2 (p42), human, Biosource PHO 0104 (human) (UniProt P28482). Description: RPA, competition: +free pErk1/2 peptide 1000 nM.
Test [34] has as its target ERK1 (p44) inactive (GST tagged), human, Invitrogen PV 3312 (human) (UniProt P27361). Description: RPA, competition: +free pErk1/2 peptide 1000 nM.
Test [35] has as its target Erk1-BSA 2.7x peptide-protein conjugate (human; bovine). Description: RPA, competition: +free pErk1/2 peptide 1000 nM.
Test [36] addresses ERK1 (p44) active (GST tagged), human, Invitrogen PV 3311 (human) (UniProt P27361). Description: RPA, competition: +free pErk1/2 peptide 1000 nM.

UniProt P28482, sequence (P28482 2-360 limits assumed): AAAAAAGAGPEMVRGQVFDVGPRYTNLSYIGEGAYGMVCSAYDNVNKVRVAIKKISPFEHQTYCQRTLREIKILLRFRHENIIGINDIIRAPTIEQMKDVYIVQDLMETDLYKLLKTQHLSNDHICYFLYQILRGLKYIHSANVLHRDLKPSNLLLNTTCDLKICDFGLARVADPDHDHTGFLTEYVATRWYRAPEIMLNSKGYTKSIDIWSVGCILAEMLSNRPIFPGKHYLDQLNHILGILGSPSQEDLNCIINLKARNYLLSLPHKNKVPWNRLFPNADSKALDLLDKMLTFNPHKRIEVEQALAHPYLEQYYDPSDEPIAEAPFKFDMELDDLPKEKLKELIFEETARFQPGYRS
Erk1-BSA 2.7x peptide-protein conjugate (human; bovine), sequence (peptide, as listed by the source limits assumed, chain 1 of 2): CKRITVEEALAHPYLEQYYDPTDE
Erk1-BSA 2.7x peptide-protein conjugate (human; bovine), sequence (P02769 25-607 limits assumed, chain 2 of 2): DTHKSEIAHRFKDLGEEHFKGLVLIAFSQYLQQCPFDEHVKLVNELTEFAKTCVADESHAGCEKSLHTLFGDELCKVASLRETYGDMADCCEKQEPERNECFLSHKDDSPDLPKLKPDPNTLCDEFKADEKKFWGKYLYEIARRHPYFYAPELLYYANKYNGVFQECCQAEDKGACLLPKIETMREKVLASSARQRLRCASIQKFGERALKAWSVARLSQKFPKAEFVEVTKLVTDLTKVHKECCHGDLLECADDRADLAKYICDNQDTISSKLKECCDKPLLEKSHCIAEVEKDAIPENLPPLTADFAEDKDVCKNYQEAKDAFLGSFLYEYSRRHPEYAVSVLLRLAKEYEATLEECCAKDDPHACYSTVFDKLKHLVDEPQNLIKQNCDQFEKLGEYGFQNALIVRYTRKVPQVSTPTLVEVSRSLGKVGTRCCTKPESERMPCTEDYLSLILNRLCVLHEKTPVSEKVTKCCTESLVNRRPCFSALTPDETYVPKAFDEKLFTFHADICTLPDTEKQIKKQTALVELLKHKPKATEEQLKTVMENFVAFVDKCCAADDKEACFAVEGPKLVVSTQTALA
pErk1/2-BSA 2.7x peptide-protein conjugate (human; bovine), sequence (P02769 25-607 limits assumed): as the sequence (P02769 25-607 limits assumed, chain 2 of 2) above
Histone H3-BSA 2.7x peptide-protein conjugate (bovine), sequence (P02769 25-607 limits assumed): as the sequence (P02769 25-607 limits assumed, chain 2 of 2) above
UniProt P06400, sequence (P06400 whole entry): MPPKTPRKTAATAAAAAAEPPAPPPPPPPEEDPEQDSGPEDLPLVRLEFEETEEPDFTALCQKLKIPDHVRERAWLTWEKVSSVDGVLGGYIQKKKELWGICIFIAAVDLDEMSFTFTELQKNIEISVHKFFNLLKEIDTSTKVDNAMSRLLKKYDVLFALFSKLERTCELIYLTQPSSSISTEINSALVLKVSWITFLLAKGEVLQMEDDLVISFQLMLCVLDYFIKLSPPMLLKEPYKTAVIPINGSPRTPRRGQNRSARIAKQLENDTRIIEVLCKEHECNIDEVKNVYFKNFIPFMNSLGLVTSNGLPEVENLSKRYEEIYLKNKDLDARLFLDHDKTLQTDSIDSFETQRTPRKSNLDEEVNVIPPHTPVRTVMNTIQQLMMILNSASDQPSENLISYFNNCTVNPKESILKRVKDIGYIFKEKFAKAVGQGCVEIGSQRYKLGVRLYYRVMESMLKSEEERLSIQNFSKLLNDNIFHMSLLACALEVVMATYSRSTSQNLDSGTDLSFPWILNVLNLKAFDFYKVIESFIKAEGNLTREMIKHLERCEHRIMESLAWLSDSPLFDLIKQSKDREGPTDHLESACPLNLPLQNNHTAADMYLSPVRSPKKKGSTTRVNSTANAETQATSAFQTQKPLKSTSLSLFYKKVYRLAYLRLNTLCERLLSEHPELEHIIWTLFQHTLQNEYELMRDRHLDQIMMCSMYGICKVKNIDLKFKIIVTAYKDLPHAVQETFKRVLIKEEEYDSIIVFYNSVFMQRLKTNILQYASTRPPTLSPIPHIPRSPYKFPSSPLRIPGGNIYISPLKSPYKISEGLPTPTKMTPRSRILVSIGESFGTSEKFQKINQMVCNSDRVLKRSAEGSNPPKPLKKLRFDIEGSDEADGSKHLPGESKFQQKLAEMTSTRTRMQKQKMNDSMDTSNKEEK
pRb-BSA 1x peptide-protein conjugate (bovine), sequence (P02769 25-607 limits assumed): as the sequence (P02769 25-607 limits assumed, chain 2 of 2) above

Take Histone H3 antibody, Abcam ab1791: the maximum standard curve signal is 1.13 RFI in test [1]; under 0.01 RFI in [2]; under 0.01 RFI in test [3]; 1.41 RFI in test [4]; under 0.01 RFI in test [5]; 0.04 RFI in test [6]. The maximum standard curve signal is under 0.01 RFI in [7]; under 0.01 RFI in [8]; 0.01 RFI in test [9]; under 0.01 RFI in test [10]; under 0.01 RFI in test [11]; under 0.01 RFI in [12]. The maximum standard curve signal in test [15] was 4.45 RFI; in test [16], under 0.01 RFI; in test [17], under 0.01 RFI; in test [18] it was 3.33 RFI; in test [19], under 0.01 RFI; in test [20] it was 0.2 RFI. Further, the maximum standard curve signal in test [21] is under 0.01 RFI; in [22], under 0.01 RFI; in test [23], 0.02 RFI; in [24], 0.01 RFI; in [25], under 0.01 RFI; in test [26] it was under 0.01 RFI. Also, the values for the LOD in test [13] and in [14] were 0.178 nM and 0.141 nM, respectively.
With “p44/42 MAPK (Erk1/2) antibody, Biosource 44-654G”, the LOD in test [27] is 0.084 nM; in test [28] it was 0.046 nM.
In the case of “p44/42 MAPK phospho (pERK1/2) Thr202/Tyr204 antibody, Cell Signaling Technology #9101”, the LOD in [29] was 0.032 nM. For the same substance, the maximum standard curve signal was 0.01 RFI in test [30]; under 0.01 RFI in test [31]; 0.01 RFI in [32]; 0.01 RFI in test [33]; 0.01 RFI in [34]; 0.02 RFI in [35]. For the same substance, the maximum standard curve signal in test [36] came out at 0.01 RFI.
